Results reported in the supplement of paper PMC10567573.

B1: TMEM106C (parent)
chain: YVTTNVSLIPPRSEQLVNFTGKAE

Variants of: B1
Assay: protein stability index of a GFP-peptide fusion (GPS, HEK-293T) (PSI 1-6); higher = more stable
Details: c terminus: a fixed tail appended
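Note: lentivirally expressed fusions sorted by FACS into six bins by GFP to DsRed ratio, PSI derived from sequencing read proportions per bin multiplied by bin number.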

Protein stability index of substitutions, site by site:
P10: Y 2.88, C 2.58, T 2.42, R 3, E 1.66, K 2.45, M 2.82, V 3.38, L 1.86, D 1.46, A 3.06, I 2.65, W 2.56, G 3.2, N 2.78, H 1.91, S 1.82, F 2.74, Q 2.26
E14: R 1.87, T 2.79, W 2, L 2.27, K 2.16, S 1.79, I 2.17, H 1.92, F 1.99, V 2, P 2.18, A 2.11, Y 2.19, M 2.26, G 1.59, D 1.46, Q 1.5, N 1.8
S7: D 2.37, V 1.79, G 2.36, I 3.34, H 2.29, Y 3.23, T 2.64, C 2.56, L 2.45, Q 2.27, P 2.81, A 1.31, K 1.36, E 2.13, W 1.54, R 2.13, N 2.18, F 1.83, M 1.57
R12: G 2.49, P 1.86, A 2.85, F 2.75, L 1.48, D 1.92, Y 2.39, M 2.14, W 2.19, V 2.08, C 1.86, Q 2.1, T 2.09, I 1.78, S 2.23, K 1.9, N 1.83, H 1.85, E 1.9
I9: T 2.43, D 2.24, V 1.51, S 1.71, W 1.75, F 1.7, A 2.94, M 1.86, H 2.46, N 2.17, Q 1.61, R 1.99, L 1.7, Y 2.32, E 2.25, G 1.6, P 1.81, K 2.02, C 1.2
S13: D 1.57, N 2.32, L 2.32, A 2.22, R 1.86, V 2.07, Q 1.72, M 2, I 1.62, G 1.86, W 1.18, C 2.24, P 1.64, H 2.34, E 1.88, K 1.55, F 2.56, Y 2.2, T 1.74
L8: H 2.16, P 1.75, E 2.61, S 2.26, R 1.6, A 2.21, D 2.44, T 1.95, K 1.71, Y 1.86, G 2.39, C 1.66, W 2.1, M 2.5, Q 1.53, I 2.04, V 1.67, F 2.54, N 1.98
P11: D 2.11, W 3.67, L 1.51, E 1.72, Q 2.12, T 1.74, A 1.6, M 1.45, H 1.97, R 1.41, Y 2.75, F 3.09, I 2.3, S 2.65, V 1.41, K 2.01, N 2.37, G 2.51
V6: W 2.57, G 1.77, M 1.75, F 3.64, L 2.06, S 1.91, T 2.02, R 1.92, P 2, I 1.86, E 2.36, H 1.59, Y 2.76, Q 1.68, N 2.26, K 1.87, D 2.37
